In paper doi:10.1101/2024.09.18.613619 (bioRxiv, 2024):

Target: T1, Rpn8 (Saccharomyces cerevisiae proteasome lid subunit) (S. cerevisiae, UniProt Q08723 1-338)
T1 sequence (looked up): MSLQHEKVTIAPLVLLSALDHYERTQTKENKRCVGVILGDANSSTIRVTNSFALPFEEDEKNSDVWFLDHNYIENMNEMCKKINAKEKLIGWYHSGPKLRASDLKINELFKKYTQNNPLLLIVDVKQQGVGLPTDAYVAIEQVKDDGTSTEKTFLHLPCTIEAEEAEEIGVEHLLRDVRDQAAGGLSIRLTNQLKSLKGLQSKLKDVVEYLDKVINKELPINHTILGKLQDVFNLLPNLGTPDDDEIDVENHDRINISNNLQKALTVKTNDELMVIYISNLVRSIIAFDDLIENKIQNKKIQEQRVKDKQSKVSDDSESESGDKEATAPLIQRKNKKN
Experiment: two-hybrid

β-galactosidase activity relative to the GlRpn8-GlRpn11 pair: ~2 fold
B1: Rpn11 (Saccharomyces cerevisiae proteasome lid subunit) (natural protein, S. cerevisiae, UniProt P43588 1-306, looked up)
chain: MERLQRLMMNSKVGSADTGRDDTKETVYISSIALLKMLKHGRAGVPMEVMGLMLGEFVDDYTVNVVDVFAMPQSGTGVSVEAVDDVFQAKMMDMLKQTGRDQMVVGWYHSHPGFGCWLSSVDVNTQKSFEQLNSRAVAVVVDPIQSVKGKVVIDAFRLIDTGALINNLEPRQTTSNTGLLNKANIQALIHGLNRHYYSLNIDYHKTAKETKMLMNLHKEQWQSGLKMYDYEEKEESNLAATKSMVKIAEQYSKRIEEEKELTEEELKTRYVGRQDPKKHLSETADETLENNIVSVLTAGVNSVAIK
